Ends that are not written are not given here.

Test [1] addresses CHD5 PHD2 finger (413-468), GST tag cleaved (UniProt Q8TDI0 413-468). Description: SPR.
The target in test [2] is CHD5 tandem PHD1-2 (338-468), GST tag cleaved (UniProt Q8TDI0 338-468). Description: SPR. For orientation: SPR reads the build-up and loss of mass on a sensor chip optically.
Test [3] has as its target CHD5 PHD1 finger (338-393), GST tag cleaved (UniProt Q8TDI0 338-393). As to the kind of experiment: SPR.
Test [4] deals with CHD5 tandem PHD1-2 as used in the ALPHA (UniProt Q8TDI0 338-468). Description: AlphaScreen or HTRF. (In Alpha technology, singlet oxygen from a donor bead excites a nearby acceptor bead.)
CHD5 tandem PHD1-2 as used in the ALPHA, sequence (Q8TDI0 338-468): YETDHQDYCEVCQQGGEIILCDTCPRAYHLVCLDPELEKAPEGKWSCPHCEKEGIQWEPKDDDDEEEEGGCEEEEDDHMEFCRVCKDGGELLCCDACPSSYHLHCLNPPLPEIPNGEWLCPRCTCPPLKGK

CHD5 tandem PHD1-2 (338-468), GST tag cleaved, sequence (Q8TDI0 338-468): as above
CHD5 PHD2 finger (413-468), GST tag cleaved, sequence (Q8TDI0 413-468): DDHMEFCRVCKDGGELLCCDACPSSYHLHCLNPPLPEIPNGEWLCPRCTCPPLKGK
CHD5 PHD1 finger (338-393), GST tag cleaved, sequence (Q8TDI0 338-393): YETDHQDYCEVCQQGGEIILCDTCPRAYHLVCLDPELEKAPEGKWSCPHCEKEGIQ

The Kd is a measure of binding affinity in units of concentration. The low end stands for a tighter complex, the high end for a looser complex. The term koff denotes the first-order rate constant of dissociation. Low readings indicate slow dissociation, high ones fast dissociation. As a reminder, the kon is the rate constant with which the complex forms. A low value points to slower complex formation. As for ARTKQTARKST-biotin (peptide, UniProt P68431 2-12, looked up) [Histone H3 peptide (1-11) with C-terminal biotin], the Kd stood at 34.6 µM in test [1], 9.18 µM in test [2] and 98.8 µM in test [3]. The results for the koff in test [1], in test [2] and in test [3] were 0.0136 ± 0.0003 s⁻¹, 0.00348 s⁻¹ and 0.0103 ± 0.0001 s⁻¹, respectively. The kon in test [1] is 393 ± 13 M⁻¹ s⁻¹; in test [2] it was 379 ± 7 M⁻¹ s⁻¹; in test [3], 104 ± 7 M⁻¹ s⁻¹.
Turning to ARTKQTARKST (peptide, UniProt P68431 2-12, looked up) [Histone H3 peptide (1-11) with C-terminal 6x-histidine], the binding result in test [4] is given as “binds”.

These data come from article PMC3518043 (Biochemistry, 2012).
